Patent US20180355060A1 (published 2018)
Numbering of substitutions follows the chain as printed. Like-named read-outs stand apart in the source and are kept apart here. Values belong to the binder of their own block, whether it stands above or below them.

Experiments:
[1] = target: T1, human transglutaminase type 2 (TG2) (UniProt P21980 1-687); test: enzyme inhibition
T1 chain: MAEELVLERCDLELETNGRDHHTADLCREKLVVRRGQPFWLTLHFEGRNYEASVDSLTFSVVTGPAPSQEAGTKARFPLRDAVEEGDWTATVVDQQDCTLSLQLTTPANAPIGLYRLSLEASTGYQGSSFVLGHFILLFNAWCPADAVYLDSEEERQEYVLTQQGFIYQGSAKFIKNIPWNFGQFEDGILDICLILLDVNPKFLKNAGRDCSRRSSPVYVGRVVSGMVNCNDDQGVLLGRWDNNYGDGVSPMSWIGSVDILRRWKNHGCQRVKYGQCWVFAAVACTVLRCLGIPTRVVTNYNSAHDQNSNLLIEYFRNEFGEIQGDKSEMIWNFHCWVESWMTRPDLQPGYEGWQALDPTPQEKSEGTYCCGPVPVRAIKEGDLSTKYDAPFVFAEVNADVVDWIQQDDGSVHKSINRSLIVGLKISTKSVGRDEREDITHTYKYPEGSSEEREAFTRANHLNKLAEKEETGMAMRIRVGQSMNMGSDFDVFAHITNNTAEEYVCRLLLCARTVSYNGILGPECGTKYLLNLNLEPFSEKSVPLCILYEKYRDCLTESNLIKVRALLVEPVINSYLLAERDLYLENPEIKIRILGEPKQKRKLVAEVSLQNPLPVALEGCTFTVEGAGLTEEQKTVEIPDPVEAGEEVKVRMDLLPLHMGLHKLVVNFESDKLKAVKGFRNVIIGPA

[2] = target: T1, human transglutaminase type 2 (TG2); test: ELISA
[3] = target: T2, cynomolgus monkey TG2 (cynomolgus monkey, UniProt A0A2K5VXI8 2-687); test: ELISA
T2 chain: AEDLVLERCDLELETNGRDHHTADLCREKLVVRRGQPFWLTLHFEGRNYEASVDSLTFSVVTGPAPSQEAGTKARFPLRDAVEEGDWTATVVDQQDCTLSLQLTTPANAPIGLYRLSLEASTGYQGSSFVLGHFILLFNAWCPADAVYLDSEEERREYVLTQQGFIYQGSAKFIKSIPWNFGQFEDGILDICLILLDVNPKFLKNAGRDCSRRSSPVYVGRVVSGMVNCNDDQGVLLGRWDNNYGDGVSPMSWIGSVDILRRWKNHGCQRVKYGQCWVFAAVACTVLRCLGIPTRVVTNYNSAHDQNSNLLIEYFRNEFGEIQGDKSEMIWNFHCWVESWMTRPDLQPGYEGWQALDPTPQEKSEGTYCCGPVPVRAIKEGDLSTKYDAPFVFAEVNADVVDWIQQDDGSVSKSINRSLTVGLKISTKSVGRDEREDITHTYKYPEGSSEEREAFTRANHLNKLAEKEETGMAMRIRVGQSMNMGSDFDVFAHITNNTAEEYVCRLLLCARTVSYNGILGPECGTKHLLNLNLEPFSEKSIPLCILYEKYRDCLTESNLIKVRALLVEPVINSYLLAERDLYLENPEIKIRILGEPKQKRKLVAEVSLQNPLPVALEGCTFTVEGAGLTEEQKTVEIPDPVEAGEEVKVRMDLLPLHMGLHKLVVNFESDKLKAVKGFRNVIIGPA

[4] = target: T1, human transglutaminase type 2 (TG2); test: enzyme inhibition
[5] = target: T2, cynomolgus monkey TG2; test: enzyme inhibition
[6] = target: T1, human transglutaminase type 2 (TG2); test: ELISA
[7] = target: T1, human transglutaminase type 2 (TG2); test: enzyme inhibition
[8] = target: T2, cynomolgus monkey TG2; test: ELISA
[9] = target: T1, human transglutaminase type 2 (TG2); test: enzyme inhibition

IC50 [1]: 1.17 nM | EC50 [2]: 0.0614 nM | EC50 [3]: 0.0568 nM
B1: cAB003 chimeric anti-TG2 antibody (murine AB1 variable regions, human IgG1 and human kappa) (antibody, V domains shown)
VH: EVQLVESGGGLVKPGGSLKLSCAASGFTLSSSAMSWVRQTPDRRLEWVATISVGGGKTYYPDSVKGRFTISRDNAKNTLYLQMNSLRSEDTAMYYCAKLISLYWGQGTTLTVSS
VL: DIKMTQSPSSMYASLGERVTITCKASQDINSYLTWFQQKPGKSPKTLIYRTNRLFDGVPSRFSGSGSGQDFFLTISSLEYEDMGIYYCLQYDDFPYTFGGGTKLEIK

IC50 [5]: 8.51 nM | EC50 [6]: ~0.0474 nM | IC50 [7]: 5.99 nM | EC50 [8]: 0.0561 nM
B3: hBB001AA humanised BB7 antibody (BB7 RHA with BB7 RKA) (antibody, V domains shown)
VH: EVQLLESGGGLVQPGGSLRLSCAASGIIFSSSAMSWVRQAPGKGLEWVATISSGGRSTYYPDSVKGRFTVSRDSSKNTLYLQMNSLRAEDTAVYYCAKLISPYWGQGTLVTVSS
VL: DIKMTQSPSSLSASVGDRVTITCKASQDINSYLTWFQQKPGKAPKTLIYLTNRLMDGVPSRFSGSGSGQEFLLTISSLQPEDFATYYCLQYVDFPYTFGQGTKVEIK

EC50 [6]: 0.0627 nM | IC50 [7]: 0.985 nM | EC50 [8]: 0.0738 nM
B4: hBB001BB humanised BB7 antibody (BB7 RHB with BB7 RKB) (antibody, V domains shown)
VH: B3 VH with I27F, I28T, A49S, V70I, S74N
VL: B3 VL with K3Q, T46S, Q69T, E70D, L72F

EC50 [9]: ~7000 nM
B5: DH2 murine monoclonal anti-TG2 antibody (antibody, V domains shown)
VH: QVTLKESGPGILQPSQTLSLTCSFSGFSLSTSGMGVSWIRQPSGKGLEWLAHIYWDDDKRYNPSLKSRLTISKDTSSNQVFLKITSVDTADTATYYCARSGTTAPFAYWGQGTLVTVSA
VL: QIVLTQSPAIMSASPGEKVTMTCSASSSVSYMYWYQQKPGSSPRLLIYDTSNLASGVPVRFSGSGSGTSYSLTISRMEAEDAATFYCQQWSSSPLTFGAGTKLELK

Further lines, the binder ahead of its results:

B2: DC1 murine monoclonal anti-TG2 antibody (antibody, V domains shown)
VH: EVQLVESGGGLVKPGGSLKLSCAASGFTLSTHAMSWVRQTPEKRLEWVATISSGGRSTYYPDSVKGRFTISRDNVKNTLYLQLSSLRSEDTAVYFCARLISTYWGQGTTLTVSS
VL: B1 VL with K3T, M11I, T46I, R50L, T51V, F55V, F71Y, F72A
EC50 [4]: 0.571 nM

B6: DD9 murine monoclonal anti-TG2 antibody (antibody, V domains shown)
VH: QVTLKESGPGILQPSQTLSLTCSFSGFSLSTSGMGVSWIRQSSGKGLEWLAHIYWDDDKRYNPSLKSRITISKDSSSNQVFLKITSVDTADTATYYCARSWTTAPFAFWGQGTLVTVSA
VL: B5 VL with S30D, E78G, F85Y, S91N
EC50 [4]: 564 nM
